We go through one substance from patent US6833355.

Assay [1] addresses nuclear proteins (mixture of Jurkat nuclear extract proteins purified on protein H-Sepharose). As to the kind of experiment: SPR (BIACORE X), protein H over immobilised nuclear proteins; mean ± SD of three experiments.
In assay [2] the target is nucleophosmin/B23 (NPM), papain-released material of Jurkat T cell membrane preparations, Mono-Q pool 85-87 (human) (UniProt P06748). Nature of the assay: Affinity chromatography of 125I-labelled pool 85-87 (run-through of protein A-Sepharose) on protein H-Sepharose.
The target is the same in assay [3]. As to the kind of experiment: SPR (BIACORE X), protein H over biotinylated NPM on an avidin chip; mean ± SD of three experiments. (SPR reads the build-up and loss of mass on a sensor chip optically.)

protein H of Streptococcus pyogenes, COOH-terminally truncated fragment expressed by and purified from E. coli (305 amino acids), sequence (P50470 42-346): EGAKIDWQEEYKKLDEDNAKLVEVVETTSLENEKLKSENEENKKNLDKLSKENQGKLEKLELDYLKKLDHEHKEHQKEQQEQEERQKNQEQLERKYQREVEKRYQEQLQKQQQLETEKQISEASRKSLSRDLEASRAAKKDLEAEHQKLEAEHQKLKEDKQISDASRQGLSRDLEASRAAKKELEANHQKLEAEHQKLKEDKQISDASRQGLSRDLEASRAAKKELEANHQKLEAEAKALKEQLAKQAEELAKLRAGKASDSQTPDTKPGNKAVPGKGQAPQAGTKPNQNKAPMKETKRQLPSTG
nucleophosmin/B23 (NPM), papain-released material of Jurkat T cell membrane preparations, Mono-Q pool 85-87 (human), sequence (P06748 1-147 limits assumed): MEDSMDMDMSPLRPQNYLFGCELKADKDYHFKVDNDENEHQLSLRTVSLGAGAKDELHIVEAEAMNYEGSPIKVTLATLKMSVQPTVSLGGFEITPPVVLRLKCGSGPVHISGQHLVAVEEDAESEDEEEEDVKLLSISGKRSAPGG

For orientation: Kd means the constant that tells how readily two partners part at equilibrium. A word on the koff: it is the rate constant with which the complex falls apart. One may read the kon as the second-order rate constant of association. On to “protein H of Streptococcus pyogenes, COOH-terminally truncated fragment expressed by and purified from E. coli (305 amino acids) (from UniProt P50470 42-346)”, for which, in assay [1], the Ka is 2.62e+07 M⁻¹, the Kd came to 44 nM, the koff was determined as 6.7e-05 s⁻¹ and the kon turned out to be 1700 M⁻¹ s⁻¹. Also, the percent of radioactivity bound in assay [2] is above 70%. In assay [3], the Ka is 3.6e+06 M⁻¹, the Kd was found to be 286 nM, the koff was determined as 0.0019 s⁻¹ and the kon was 6700 M⁻¹ s⁻¹.
